Test [1] deals with T1, ヒトFRβ(FRβ発現B300−19細胞) (human, UniProt P14207 17-230).
T1 construct: whole, on cells; also called 葉酸リセプターβ
In words: Flow cytometry on B300-19 cells expressing FRβ, in the presence of F(ab')2 No.5, APC-streptavidin detection. On the technique in general: A flow cytometer gives signals particle by particle.

The target of test [2] is T1, ヒトFRβ(FRβ発現B300−19細胞). In words: Flow cytometry on B300-19 cells expressing FRβ, antibody at 1 μg/ml, APC anti-rat detection.
A further test addresses T2, ヒトFRα(FRα発現KB細胞) (human, UniProt P15328 25-234).
T2 construct: whole, on cells
Put plainly: Hybridoma screening on cells expressing FRβ and on KB cells expressing FRα.

T1 sequence (P14207 17-230): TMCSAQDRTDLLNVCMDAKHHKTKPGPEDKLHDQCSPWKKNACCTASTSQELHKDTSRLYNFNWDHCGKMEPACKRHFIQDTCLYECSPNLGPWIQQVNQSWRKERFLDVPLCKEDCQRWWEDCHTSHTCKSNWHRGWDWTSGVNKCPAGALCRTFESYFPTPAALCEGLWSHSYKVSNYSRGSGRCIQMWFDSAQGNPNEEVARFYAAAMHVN
T2 sequence (P15328 25-234): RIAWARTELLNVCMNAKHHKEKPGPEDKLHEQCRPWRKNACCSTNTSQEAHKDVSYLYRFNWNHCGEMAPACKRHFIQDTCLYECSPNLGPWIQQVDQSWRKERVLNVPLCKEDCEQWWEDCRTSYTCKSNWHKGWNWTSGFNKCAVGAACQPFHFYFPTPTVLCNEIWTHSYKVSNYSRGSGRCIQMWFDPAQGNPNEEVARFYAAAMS

B1: ビオチン化No.2抗体 (antibody, V domains shown)
VH: QVQLQQSGAELAKPGSSVKISCKASGYTFTTYYINWIKQTTGQGLDYIGYINTRSGGTNYNEKFKGKATLTVDKSSSTAFMQLSSLTPDDSAVYYCAREGIIRGAEVMDAWGQGASVTVSS
VL: DIQMTQTPSSMPASLGERVTISCRASQGISNYLNRYQQKPDGTIKLLIYYTSNLQSGVPSRFSGSGSGTDYSLTISSLEPEDFAMYYCQQYDSSPPTFGGGTKLELK
modifications: biotinylated with Sulfo-NHS-LC-Biotin; sites not stated
notes: also called 検出抗体; ビオチン化抗FRβ抗体
B1: the binding result in the test with ヒトFRβ(FRβ発現B300−19細胞) [1] was “binds”.

B2: 抗ヒトFRβラットモノクローナル抗体(クローン名:No.2) (antibody, V domains shown)
VH: B1 VH
VL: B1 VL
notes: Rat monoclonal antibody purified from hybridoma supernatant; the constant regions are not; also called 抗体No.2
With B2, the binding result with ヒトFRβ(FRβ発現B300−19細胞) [2] is given as “binds”.

B3: 抗ヒトFRラットモノクローナル抗体(クローン名:No.5) (antibody, V domains shown)
VH: QVQLKESGPGLVQPSQTLSLTCTVSGFSLTSNSVSWVRQPPGKGLEWMGAIWSGGSTDYNSALKSRLSISKDTSKSQVFLKMNSLQTEDTAIYFCTRYYGYTYFAYWGQGVMVTVSS
VL: DIQMTQSPASLSASLEEIVTITCQASQDIGNWLAWYQQKPGKSPQLLIYDAIRLADGVPSRFSGSRSGTQYSLKISRLQVEDIGDYYCQQGQSNPRTFGGGTKLELK
notes: Rat monoclonal antibody purified from hybridoma supernatant; the constant regions are not; also called 抗体No.5
Turning to B3, the binding result in the test with ヒトFRα(FRα発現KB細胞) and in the test with ヒトFRβ(FRβ発現B300−19細胞) [2] was “binds” throughout.
